Measurements published in US5459256A, “Lipophilic, aminohydrolase-activated prodrugs” (priority 1991, dated 1995).

What was measured:
Assay in all cases: purified protein, by the assay type
Conditions in all cases: other: pH 7.4 and 37° C.
[1] = substrate: CNc1ncnc2c1ncn2[C@@H]1O[C@H](CO)C[C@@H]1F
Protocol: (§1) Deamination of dideoxyadenosine analogues by adenosine deaminase. Hydrolysis kinetics and 2'-F-dd-ara-I formation during the incubation of 50 μM N^6 -CH3 -2'-F-dd-ara-A (1f) with 0.7 units/mL of adenosine deaminase at 37° C. A unit of adenosine deaminase is the amount of enzyme which hydrolyzes a standard substrate (e.g., adenosine) at the rate of 1.0 μmole/min at 25° C. and pH 7.5. […] Insert: Adenosine deaminase hydrolysis kinetics for 50 μM ddA and 2'-F-dd-ara-A. The hydrolysis curve for ddA has been extrapolated from kinetics obtained with 0.07 units/mL of adenosine deaminase under identical conditions.
(§2) A 50 μl aliquot of a 10 mg/ml suspension of adenosine deaminase (adenosine aminohydrolase, EC 3.5.4.4) from calf intestinal mucosa was centrifuged at 600×g for 3 min. The residue remaining after removal of the (NH4)2 SO4 supernatant was dissolved in 0.5 ml pH 7.4 tris(hydroxymethyl)-aminomethane (Tris) buffer to give an enzyme solution of 1 mg/ml (274 units/ml). […]
(§3) Enzymatic Deamination of Adenosine Analogues. […] The decrease in substrate concentration was monitored by HPLC analysis of the resultant ultrafiltrate (see below). The ability of 2'-deoxycoformycin to inhibit deamination under the above conditions was evaluated by adding 2 μL of 1.0 mM inhibitor to diluted substrate solutions at the time of equilibration. […] Initial hydrolysis rates for each substrate concentration were measured through linear least-squares curve fitting of the concentration versus time data for reaction of the first 10% of substrate. KM and vmax values for each substrate were then determined from a graphical lineweaver-Burke plot of these initial rates (FIG. 1). […]
(§4) Concentrations of dideoxynucleosides were measured by the HPLC analysis of 100 μL aliquots of ultrafiltered samples. […] Dideoxynucleosides and deamination products were detected at the appropriate wavelength of maximum absorption with a Gilson 116 variable wavelength detector. […] Peak areas and peak heights were measured simultaneously on a Spectra-Physics SP4200 computing integrator.

[2] = substrate: Nc1ncnc2c1ncn2[C@@H]1O[C@H](CO)C[C@@H]1F
[3] = substrate: Nc1ncnc2c1ncn2[C@H]1CC[C@@H](CO)O1
Protocol: as §1, §2, §3, §4

[4] = substrate: OC[C@@H]1C[C@H](F)[C@H](n2cnc3c(Cl)ncnc32)O1
Protocol: as §1, §2, §3, §4

B1: adenosine deaminase (adenosine aminohydrolase, EC 3.5.4.4) (Bos taurus) (protein)
chain: MAQTPAFNKPKVELHVHLDGAIKPETILYYGRKRGIALPADTPEELQNIIGMDKPLSLPEFLAKFDYYMPAIAGCREAVKRIAYEFVEMKAKDGVVYVEVRYSPHLLANSKVEPIPWNQAEGDLTPDEVVSLVNQGLQEGERDFGVKVRSILCCMRHQPSWSSEVVELCKKYREQTVVAIDLAGDETIEGSSLFPGHVKAYAEAVKSGVHRTVHAGEVGSANVVKEAVDTLKTERLGHGYHTLEDATLYNRLRQENMHFEVCPWSSYLTGAWKPDTEHPVVRFKNDQVNYSLNTDDPLIFKSTLDTDYQMTKNEMGFTEEEFKRLNINAAKSSFLPEDEKKELLDLLYKAYGMPSPASAEQCL
- Km [1]: 110 µM
- Km [2]: 330 µM
- Km [3]: 14 µM
- Km [4]: 7500 µM
